From US12472269B2, “Liver-specific inducible promoters and methods of use thereof” (ASKBIO INC., priority 2019, dated 2025)

How the values were obtained:
Assay type in all cases: cell-based, human
[1] = test system: Huh7 and ARE primary cells; assay: Effect of AAV ITRs: pAAV constructs transfected into Huh7 and ARE primary cells, compared with pGL4.10; conditions: mean of 3 biological replicates
Description: Following from Example 3, it was decided to take PB1-MinTK and PB1-2-MinTk forward for in vivo studies. To facilitate this the two aforementioned constructs were cloned into pAAV vector (Takara, Clontech) to allow for the preparation of AAV viruses. The inserts where cloned using restriction digest of the pAAV plasmid and PCR amplification of the original pGL4.10 constructs.
We investigated the effect of the Inverted Terminal Repeats (ITRs) on the activity of the promoters. This was done as we have observed interference from the AAV ITRs in other projects. To this end, the pAAV-PB1-MinTk and pAAV-PB1-2-MinTk were transfected into Huh7 and ARE primary cells as previously described and their activity assessed.

AXOL ARE hepatocytes = assay: Luciferase expression from pAAV constructs in AXOL ARE hepatocytes without CITCO, with CITCO and after CITCO withdrawal; conditions: pAAV vector
Method: Luciferase expression from the PB1-MinTK and PB1-2-MinTK constructs in the pAAV vector in AXOL ARE hepatocytes is inducible by CITCO (1 μM) but reduces after removing CITCO as shown in FIG. 5.

Huh7 cells [2] = assay: EPO expression (ELISA of medium) from PB1-MinTK in Huh7 cells with CAR-containing plasmid, induction by CITCO
Description: (§1) • Huh7 cells which are a human liver cell line • DPBS: without CaCl2, without MgCl2 (Gibco, 14190-094) • DMEM (Sigma, D6546) • FBS (Sigma, F9665) • Pen-Strep (Sigma, P4333) • Promega Fugene-HD (E2311) • TCPOBOP (Sigma, T2320) • CITCO (Cayman Chemicals Company, 16027) • pcDNA6 plasmid which contains the β-galactosidase gene used as internal control for transfection efficiency (Thermofisher, V22020) • mouse CAR expression plasmid from Jouan et al, 2016 (BioCat GmbH, EX-Z4288-M51-10-GC). This was used as Huh7 is CAR deficient. • β-galactosidase substrate solution (Thermofisher, 75707/75710) • Pierce BCA kit (23225) • LARII (Dual Luciferase Reporter 1000 assay system, Promega, E1980) • EPO ELISA kit (Abcam, ab119522) Method: Day 1 • Cells were seeded onto a 48 well plate at a density of 25,000 cells/300 μl Day 2 • On the day of transfection, DNA to be transfected (CAR plasmid/PB1-MinTK operably linked with luciferase or EPO/pcDNA6 plasmid for internal control) was diluted to a 100 ng/μl stock solution. Per 48 Well Transfection: • 45 ng of DNA (15 ng of each plasmid, pcDNA6, CAR and test plasmid) was mixed with 4.1 μl of Optimem medium. • 0.5 μl of Fusion HD was mixed with 4 μl of Optimem medium. • These 2 solutions were mixed and incubated at room temperature for 15 minutes. • The final solution was then added to the well drop wise. • 3 hrs after transfection, the inducer TCPOBOP was added to the appropriate wells at the indicated concentration. Day 3 • 24 hrs after induction the media was removed from the cells. • The cells were washed once in 300 μl of DPBS • Cells were lysed using 100 μl of passive lysis buffer and incubation with rocking for 15 minutes • The cell debris was pelleted by centrifugation of the plate at max speed in a benchtop centrifuge for 1 min • For luciferase, 10 μl sample was transferred into white 96-well plate and luminescence measured by injection of 50 μl of LARII substrate. • β-galactosidase activity was measured as per manufacturer's instructions (Mammalian β-Galactosidase Assay Kit, 75707/75710, Thermo Scientific) using 25 μl of lysate. 25 μl of lysate was transferred into a microplate well and mixed with 25 μl of β-galactosidase Assay Reagent, equilibrated to room temperature. The mixture was incubated at 37° C. for 30 min and absorbance measured at 405 nm. • Protein concentration was measured as per manufacturer's instructions (Pierce™ BCA Protein Assay Kit, 23225/23227, Thermo Scientific) using 25 μl of lysate. 25 μl of lysate was transferred into a microplate well and mixed with 200 μl of working solution. The mixture was incubated at 37° C. for 30 min, cooled to room temperature and then absorbance measured around 562 nm. The protein concentration was calculated with respect to protein standard curve prepared from assaying standards with known protein concentration.
Transfections with PB1-MinTk-EPO were performed as described above with the exception that EPO is secreted into the medium. Therefore, medium was collected, and EPO concentration measured as per manufacturer's instructions (ab119522 Erythropoietin (EPO) Human ELISA Kit, Abcam) using an ELISA assay. 50 μl of medium was transferred to a pre-washed microplate wells and mixed with 50 μl of 1× Biotin Conjugated Antibody. The mixture was incubated at room temperature for 1 hour. The wells were washed, 100 μl of Streptavadin-HRP was added and the plate was incubated at room temperature for 15 minutes. The wells were washed and then 100 μl of TMB Substrate Solution. The mixture was incubated at room temperature for 10 minutes. The enzyme reaction was stopped by addition of 100 μl of Stop Solution and absorbance was read at 450 nm. The EPO concentration was calculated with respect to EPO standard curve prepared from assaying standards with known EPO concentration.
The PB1-MinkTK promoter was then used to drive expression of the protein EPO, which is of therapeutic interest. […]

Huh7 cells [3] = assay: Luciferase expression from PB1-MinTK construct in Huh7 cells transfected with CAR plasmid, induction by TCPOBOP
Description: as §1
Luciferase readouts were normalised to both β-galactosidase and protein concentration in the lysate to produce normalised relative luminometer units (RLUs).
To compare across experiments the strength of the promoters was compared to CMV-IE promoter which was driving the same gene as the PBREM-containing constructs, which is included in every experiment.
The PB1-MinTK construct was cloned into the vector pGL4.10 using the KpnI and NcoI restriction sites. This places the promoters directly upstream of the firefly luciferase reporter gene. The PB1-MinTK construct contains the 51 bp enhancer and the MinTK minimal promoter from Herpes Thymidine kinase gene.

B1: PB1-MinTK: promoter: single mouse PBREM element and MinTK minimal promoter, SEQ ID NO: 7 (nucleic acid)
DNA: TCTGTACTTTCCTGACCTTGGCACAGTGCCACCATCAACTTGCCTGACACCGATCCGGCCCCGCCCAGCGTCTTGTCATTGGCGAATTCGAACACGCAGATGCAGTCGGGGCGGCGCGGTCCGAGGTCCACTTCGCATATTAAGGTGACGCGTGTGGCCTCGAACACCGAGCGACCCTGCAGCGACCCGCTTAACAGCGTCAACAGCGTGCCGCAGATCTCGAGGAGCTTGGCGAGATTTTCAGGAGCTAAGGAAGCTAAAC
modifications: PB1-MinTK
induction of luciferase expression across pGL4.10 and pAAV vectors and cell types [1]: comparable across vectors and cell types | luciferase expression with CITCO (AXOL ARE hepatocytes; CITCO (1 μM)): inducible | activity of the promoter after removal of CITCO (AXOL ARE hepatocytes; CITCO withdrawal): almost baseline levels | overall EPO expression level relative to CMV-IE (Huh7 cells [2]; CITCO induced (data not shown)): around 22% | EPO production (Huh7 cells [2]; addition of up to 2 μM CITCO): marked increase in the production of EPO | EPO expression (Huh7 cells [2]; highest concentration of CITCO (3 μM)): returns towards baseline activity | EPO expression (Huh7 cells [2]; no addition of the drug (DMSO)): very little expression of EPO | induction of the promoter (luciferase) (Huh7 cells [3]; 50 nM or 150 nM TCPOBOP, 24 hrs after induction): up to 6 fold | response of the promoter (luciferase) (Huh7 cells [3]; 250 nM TCPOBOP): did not illicit a response | luciferase expression as ratio of CMV-IE promoter (Huh7 cells [3]; TCPOBOP induced, one PBREM element with MinTK): 40% | luciferase activity from the promoter (leaky expression) (Huh7 cells [3]; cells treated with vehicle (DMSO)): very little measurable luciferase activity | luciferase activity (Huh7 cells [3]; no CAR transfected, 150 nM TCPOBOP): no measurable activity | luciferase expression (Huh7 cells [3]; presence of CAR and 150 nM TCPOBOP): high
